One molecule from patent US20060026702A1, “Phosphoinositide 3-kinase mediated inhibition of GPCRs” (DUKE UNIVERSITY, priority 2002, published 2006) can be followed below.

One assay has as its target T1, β2AR-YFP (Homo sapiens, UniProt P07550).
T1 construct: expressed in transfected cells; host or cells: HEK 293
The experiment in a line: Endocytosis of β2AR-YFP in live cells by confocal microscopy. In kind it is cell-based. Particulars: 10 μM isoproterenol, 10 min; HEAT co-expressed. On the procedure:
Confocal Microscopy—Confocal microscopy was performed as previously described. […] Cells were split into 35 mm^2 dishes with glass bottoms for observation using a Zeiss LSM-510 confocal microscope. […] For analyses of the HEAT domain, HEK 293 cells were transfected with the plasmids containing cDNAs encoding either the β2AR-YFP (2 μg) or β2AR-YFP (2 μg) and HEAT domain (4 μg). Cells were plated onto glass bottom dishes for observation in the confocal microscope. […] Cells were permeablized with 0.1% Triton X-100 in phosphate-buffered saline for 20 min, incubated in 1% BSA in phosphate-buffered saline for 1 hr. Cells were washed with 1× phosphate-buffered saline and incubated with anti-HA or anti-FLAG monoclonal antibody (1:250) with 1% BSA in 1× phosphate-buffered saline for 1 hr. Cells were washed and incubated with goat anti-mouse IgG conjugated with Texas Red (1:500) (Molecular Probes) for 1 hr. Samples were visualized using single sequential line excitation filters at 488 and 568 nm and emission filter sets at 505-550 nm for GFP detection and 585 for Texas Red detection.
Prior to agonist, the distribution of β2AR-YFP was found distinctly at the plasma membrane (FIG. 11B, panel 1). […] With time, this was followed by the formation of cytoplasmic aggregates (FIG. 11B, panel 3), and then with the complete loss of membrane fluorescence (FIG. 11B, panels 3 and 7) (arrowheads).

The subject of another assay is β2AR complex. The assay can be described thus: Recruitment of AP-2 adaptin and clathrin to the agonist-stimulated β2AR complex (immunoprecipitation, immunoblot). Type of assay: cell-based. The settings on record: HEAT co-transfected. The protocol: Immunoblotting and Detection—Immunoblotting and detection of PI3K, βARK1, HA-PI3Kγ, HA-ΔPI3Kγ, Myc-PI3Kα, FLAG-HEAT, PI3KΔHEAT-HA, FLAG-β2AR, HA-β2AR, β-adaptin and clathrin was carried out as previously described. Immunoprecipitating antibodies were added to 500 μg of cell lysate in lysis buffer followed by the addition of 35 μl of 1:1 Protein A- or G-agarose. Samples were rocked overnight at 4° C. then centrifuged at 12,000×g for 5 min. Immunoprecipitates were washed twice with lysis buffer, twice with 1×PBS and resuspended in 1×SDS-gel loading buffer. Proteins were resolved by SDS-polyacrylamide gel electrophoresis and blotted on to PVDF membrane (Bio-Rad). Blots were incubated with antibodies recognizing PI3K, Myc (Santa-Cruz), β-adaptin, clathrin heavy chain (BD Transduction Laboratories), HA (Roche Molecular Biochemicals) and FLAG (Sigma) at 1:2000 dilution and the βARK1 monoclonal antibody at 1:10,000 dilution. Blots were subsequently incubated with appropriate secondary antibody (1:2000 dilution) conjugated to horseradish peroxidase (Amersham Pharmacia Biotech) and detection was carried out using enhanced chemiluminescence. […]
The present inventors determined that βARK1-mediated localization of PI3K within the activated receptor complex is responsible for the generation of D-3 phosphatidylinositols necessary for the efficient recruitment of adaptin to the P2AR complex. […]
(A western blot detects proteins with antibodies after separation by electrophoresis.)

B1: HEAT: 197 amino acid HEAT domain of PI3Kγ, FLAG epitope-tagged (SEQ ID NO: 2), overexpressed in cells (protein, listed as Homo sapiens)
chain: MDYKDDDDKHPIALPKHQPTPDDRVRAEMPNQLRKQLEAIIATDTAEDKELLWHFRYESLKHPKAYPKLFSSVKWGQQEIVAKTYQLLARREVWDQSALDVGLTMQLLDCNFSDENVRAIAVQKLESLEDDDVLHYLLQLVQAVKFEPYHDSALARFLLKRGLRNKRIGHFLFWFLRSEIAQSRHYQQRFAVILEAYLRGCGTA
modifications: FLAG tag
As to B1, the “receptor endocytosis (redistribution of β2AR-YFP)” value in the assay with β2AR-YFP was “completely inhibited”. The “recruitment of adaptin to the agonist-stimulated β2AR complex” value in the assay on β2AR complex (10 μM isoproterenol 0-10 min) is listed as “completely abolished”. Besides, the “clathrin co-immunoprecipitated with the receptor after agonist” value in the assay on β2AR complex was “attenuated”.
